Experimental data published in article PMC2396416.

Legend:
TFBg = molecular target: T1, TFBg (Halobacterium sp. NRC-1, UniProt Q9HSF7 1-323); assay: EMSA
T1 sequence: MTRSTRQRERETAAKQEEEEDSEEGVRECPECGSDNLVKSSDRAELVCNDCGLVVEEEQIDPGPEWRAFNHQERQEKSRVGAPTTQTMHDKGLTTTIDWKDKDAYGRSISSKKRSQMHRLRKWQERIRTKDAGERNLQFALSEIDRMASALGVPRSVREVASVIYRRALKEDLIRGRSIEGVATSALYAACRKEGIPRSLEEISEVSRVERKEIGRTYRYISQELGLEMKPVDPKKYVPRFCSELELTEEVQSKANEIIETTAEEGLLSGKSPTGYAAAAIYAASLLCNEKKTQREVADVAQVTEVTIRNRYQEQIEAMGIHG

TFBb = molecular target: T2, TFBb (Halobacterium sp. NRC-1, UniProt Q9HRE6 1-325); assay: EMSA
T2 sequence: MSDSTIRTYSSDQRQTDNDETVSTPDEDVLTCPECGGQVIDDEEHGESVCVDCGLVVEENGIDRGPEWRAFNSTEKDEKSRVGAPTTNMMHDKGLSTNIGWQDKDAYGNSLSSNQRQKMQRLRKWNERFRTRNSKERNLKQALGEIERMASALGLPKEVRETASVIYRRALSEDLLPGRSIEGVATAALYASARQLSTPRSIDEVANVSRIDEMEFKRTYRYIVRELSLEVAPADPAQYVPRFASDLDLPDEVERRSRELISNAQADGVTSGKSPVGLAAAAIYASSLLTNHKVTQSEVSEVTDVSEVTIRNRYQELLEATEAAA

B1: FM (BRE/TATA of Phsp5 replaced by Pbop) (dsDNA)
DNA 1: GCGGGATCCTCGTAGAGTTACACGAAATGCGGACATAGTTTTGGCTGGAGTCAAGGCATATGAGT
DNA 2: ACTCATATGCCTTGACTCCAGCCAAAACTATGTCCGCATTTCGTGTAACTCTACGAGGATCCCGC
Does B1 bind (TFBg)?
Result: no binding

Does B1 bind (TFBb)?
Result: no binding
